Laboratory results taken from the supplement of paper PMC12042874.
± gives the uncertainty stated by the source.

Experiment: amyloid nucleation score (Sup35N fusion, yeast selection) (log enrichment); library NNK3; higher = more nucleation; inactive = no reads after selection
Outline: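 The nucleation score equals the log enrichment of output over input reads from DiMSum, centred on the mode score of non-aggregating sequences. It was computed only for sequences with 100 or more input reads. The reads came from Illumina sequencing of plasmid inserts from psi-negative yeast expressing Sup35N fused to peptides of 20 random codons, induced with 100 μM copper sulfate for 24 hours and grown 7 days at 30°C without adenine and uracil.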
For HNLMYDRYP, the amyloid nucleation score was “inactive”.
For HPCFLW, the amyloid nucleation score was “inactive”.
Substance HPLAAGHGVYFSSCIFK has an amyloid nucleation score of 1.7 ± 0.097.
For HPMRGDVGSRAVFRMGHFIH, the amyloid nucleation score was “inactive”.
With HPRELYTFKKSWFLGRDS the amyloid nucleation score was “inactive”.
In the case of HPRTLSRLNINFRANRYGWS, the amyloid nucleation score is reported as -0.859 ± 1.7.
In the case of HPSTSTYRQRLPNCY, the amyloid nucleation score is reported as “inactive”.
In the case of HQIFYVFEYEYSKRLLCMWW, the amyloid nucleation score is reported as “inactive”.
With HRELRVTVHQKFNLRMRVSD the amyloid nucleation score was “inactive”.
With HRKMHDT the amyloid nucleation score was “inactive”.
For HRLVFCQLTR, the amyloid nucleation score was “inactive”.
Work on HRMRLSCCTAFDTLVMIPIS yielded an amyloid nucleation score of 0.482 ± 0.17.
For HRVDND, the amyloid nucleation score was “inactive”.
With HRVRYVGPENSQNLCIRDYY the amyloid nucleation score was “inactive”.
For HSFFVVQAS, the amyloid nucleation score was “inactive”.
Work on HSLWRLGYYM yielded an amyloid nucleation score of 0.912 ± 0.15.
In the case of HSNSRD, the amyloid nucleation score is reported as -0.231 ± 0.69.
With HSQKTTKALRNPSNIQ the amyloid nucleation score was “inactive”.
With HSRTMVLMCIAMIRVLGYGF the amyloid nucleation score was “inactive”.
In the case of HSSNWCSVVITLCCTLRKDY, the amyloid nucleation score is reported as 0.748 ± 0.19.
In the case of HSTGFPCLLVKITGLRHRLG, the amyloid nucleation score is reported as “inactive”.
In the case of HSVLGMCFSPKGVDVTTLVN, the amyloid nucleation score is reported as “inactive”.
With HSWFFGFIFWLLNDHSIHYG the amyloid nucleation score was “inactive”.
HSYHPMPWTVNLGCHFGGYC showed an amyloid nucleation score of 2.38 ± 0.068.
With HTDIMIWFRSCYYFLSFFMY the amyloid nucleation score was “inactive”.
With HTDWICYRRWYCIASRAMYQ the amyloid nucleation score was “inactive”.
With HTGNLYHLSWCV the amyloid nucleation score was “inactive”.
With HTILSTTTYMKMSQYSLW the amyloid nucleation score was “inactive”.
In the case of HTVKEGSSNNVVRVRIARRF, the amyloid nucleation score is reported as “inactive”.
With HVFFMKTEEPCTPEY the amyloid nucleation score was “inactive”.
For HVLGRKLFHGVAVVLFSCEL, the amyloid nucleation score was “inactive”.
In the case of HVSGVIYVVGNN, the amyloid nucleation score is reported as “inactive”.
In the case of HVYLAQGL, the amyloid nucleation score is reported as “inactive”.
With HVYNLLRVVF the amyloid nucleation score was “inactive”.
In the case of HWCTSKFIKPNGYPREERRV, the amyloid nucleation score is reported as “inactive”.
For HWFLYLPFSPYCIPRIPDYL, the amyloid nucleation score was “inactive”.
In the case of HWFRTGDMGVDFTVEACDWL, the amyloid nucleation score is reported as “inactive”.
In the case of HWHRLTSCGSRLGTGVHVVL, the amyloid nucleation score is reported as “inactive”.
With HWILSTPCLNVV the amyloid nucleation score was “inactive”.
For HWLRCHEVEKVLVL, the amyloid nucleation score was “inactive”.
With HWNCGVTNSGEFFALAVGFI the amyloid nucleation score was “inactive”.
For HWPCLNSYEAIVFFCGMDSH, the amyloid nucleation score was “inactive”.
Work on HWQYCLIFNQYVLKLCATHC yielded an amyloid nucleation score of 1.04 ± 0.16.
HWSHNLQFIFFYSYVGLANE showed an amyloid nucleation score of 1.96 ± 0.077.
With HYDFWIISYLPRSPGNMAID the amyloid nucleation score was “inactive”.
With HYMFSVVNVSGDCFFLSESN the amyloid nucleation score was 3.24 ± 0.071.
Work on HYSLNASIYSTCTRTSMNPV yielded an amyloid nucleation score of -0.136 ± 0.53.
With HYSLSQDISDSNGLQLLFLL the amyloid nucleation score was 2.1 ± 0.075.
In the case of HYYVDNPD, the amyloid nucleation score is reported as “inactive”.
In the case of IADSKHTNCFRYMSHVW, the amyloid nucleation score is reported as “inactive”.
Substance IAEGFNTVGDLWNIGCCDSG has an amyloid nucleation score of 0.154 ± 0.33.
In the case of IAGKIEIIVVRCYSLVGPCT, the amyloid nucleation score is reported as 0.305 ± 0.19.
For IAPYGRGWKDYLIDSEHVRT, the amyloid nucleation score was “inactive”.
In the case of IARINGMLASSGVASTM, the amyloid nucleation score is reported as “inactive”.
In the case of IASAYLSVLRYPFRIAKGLI, the amyloid nucleation score is reported as “inactive”.
With IATLEDFMFPLFWYCIYLTN the amyloid nucleation score was “inactive”.
In the case of IAVCTRAMASNRLGFQYRNG, the amyloid nucleation score is reported as “inactive”.
In the case of IAVQLEILAY, the amyloid nucleation score is reported as “inactive”.
In the case of IAYIT, the amyloid nucleation score is reported as “inactive”.
For ICAGLWAD, the amyloid nucleation score was “inactive”.
With ICCKYGDAKRLVCWSQKSRK the amyloid nucleation score was “inactive”.
With ICDFCQQCSVNERKTLNYSA the amyloid nucleation score was “inactive”.
With ICDKRWVC the amyloid nucleation score was “inactive”.
With ICISKRYWHDIAFCIGYSNE the amyloid nucleation score was 1.29 ± 0.12.
In the case of ICLILARINPSIRDLLG, the amyloid nucleation score is reported as 0.298 ± 0.74.
For ICNFHSSRPLNIS, the amyloid nucleation score was “inactive”.
Work on ICPIMNCVFFHRTDQSLSFN yielded an amyloid nucleation score of 2.29 ± 0.05.
In the case of ICTLCNVSRLLWSPRDKNAF, the amyloid nucleation score is reported as 2.93 ± 0.063.
For ICWKRCHG, the amyloid nucleation score was “inactive”.
In the case of ICYIPY, the amyloid nucleation score is reported as “inactive”.
For ICYTLVTN, the amyloid nucleation score was “inactive”.
For IDQDFMTVIRQS, the amyloid nucleation score was “inactive”.
In the case of IDRHAPSEESVPFWSYWNNG, the amyloid nucleation score is reported as “inactive”.
In the case of IDSCLQNSP, the amyloid nucleation score is reported as “inactive”.
For IDSLSAIGKSWTQGESRSDR, the amyloid nucleation score was “inactive”.
For IDVSCMQNNILRRIGFHV, the amyloid nucleation score was “inactive”.
In the case of IEAVCNSWRIYGM, the amyloid nucleation score is reported as “inactive”.
With IEHSQYPAQAKPRLGSCLVL the amyloid nucleation score was “inactive”.
IENRFVSFLYL showed an amyloid nucleation score of 1.88 ± 0.075.
For IERLDNSIVNVMWILSGCKA, the amyloid nucleation score was “inactive”.
With IEVLKNLRMVTGLVTL the amyloid nucleation score was “inactive”.
With IEWACVKQMYSHRALLRERR the amyloid nucleation score was “inactive”.
With IFCMFYGSMQAQTIKCNVTH the amyloid nucleation score was 1.19 ± 0.093.
In the case of IFDLWLRLYSLANYNGSFVT, the amyloid nucleation score is reported as “inactive”.
With IFEVYDVIT the amyloid nucleation score was “inactive”.
Substance IFHLKIAYFPNYGRITLYYL has an amyloid nucleation score of 1.65 ± 0.091.
With IFIIIGRRFIILKSLVRLHF the amyloid nucleation score was “inactive”.
Substance IFINRKE has an amyloid nucleation score of -0.431 ± 0.76.
In the case of IFKKLSFL, the amyloid nucleation score is reported as “inactive”.
With IFNKVSLYNEMLVWVLTWSW the amyloid nucleation score was “inactive”.
With IFNMSQYNKLECTLTLY the amyloid nucleation score was “inactive”.
In the case of IFSHSSPYNTPRK, the amyloid nucleation score is reported as “inactive”.
In the case of IFVKDFLII, the amyloid nucleation score is reported as “inactive”.
For IFVVSNFISSSMNYRSYCYL, the amyloid nucleation score was “inactive”.
In the case of IGCCFSVLKNLLFSFDVKQF, the amyloid nucleation score is reported as “inactive”.
With IGFCKDLVTCRTDYYAQLDR the amyloid nucleation score was “inactive”.
In the case of IGFIIGDVFAA, the amyloid nucleation score is reported as “inactive”.
For IGGDSRHI, the amyloid nucleation score was “inactive”.
With IGGEYGFLSCYSIGVTTFYV the amyloid nucleation score was “inactive”.
With IGIDMMMESKLYSCCNLDMY the amyloid nucleation score was 1.38 ± 0.078.
With IGIEFLNLKHLPSYLLSVRF the amyloid nucleation score was “inactive”.
With IGKRSVRVIDPVFYKPFANM the amyloid nucleation score was “inactive”.
With IGLSLE the amyloid nucleation score was “inactive”.
For IGMVHCIAEDARRLLLYIWV, the amyloid nucleation score was “inactive”.
IGRNSSKIFLFFCSCMRMFS showed an amyloid nucleation score of 2.95 ± 0.077.
For IGVTPDHRSMLGRNLCLC, the amyloid nucleation score was “inactive”.
IGYKLNFCASILDFSYCKIY gave an amyloid nucleation score of 1.07 ± 0.19.
In the case of IHIGTPFRGSHTFASVRRK, the amyloid nucleation score is reported as “inactive”.
With IHKCYT the amyloid nucleation score was “inactive”.
In the case of IHRYGTRRYETLRGQHAPFP, the amyloid nucleation score is reported as -0.719 ± 1.4.
For IHSPKLLAGAM, the amyloid nucleation score was “inactive”.
In the case of IICGSCPRR, the amyloid nucleation score is reported as “inactive”.
In the case of IICLSGGDFRRYELDHSN, the amyloid nucleation score is reported as “inactive”.
In the case of IIFQTVR, the amyloid nucleation score is reported as “inactive”.
In the case of IIGKRTSMVAITLFDINGSS, the amyloid nucleation score is reported as “inactive”.
Substance IIGTLSRMLDIGIIFVTT has an amyloid nucleation score of -0.154 ± 0.88.
With IIHGHHWFGYNSRLCC the amyloid nucleation score was “inactive”.
In the case of IIIVILLQNWTSVRAVKPIV, the amyloid nucleation score is reported as “inactive”.
With IIIVKCT the amyloid nucleation score was “inactive”.
In the case of IIRVRQTLSVRFIYIF, the amyloid nucleation score is reported as “inactive”.
With IITPELYGKLRLHH the amyloid nucleation score was “inactive”.
With IITTHSFQTDWHISEYQDIC the amyloid nucleation score was “inactive”.
For IIWAVRKGTPSSRRVTWAGK, the amyloid nucleation score was “inactive”.
In the case of IIYKTVHVYVYCSIVLERDL, the amyloid nucleation score is reported as “inactive”.
For IKEFLCLDLCQGGGLLSLMV, the amyloid nucleation score was “inactive”.
With IKFVIIRITHSREKFSVPLS the amyloid nucleation score was “inactive”.
Substance IKPSMQIILWFGLERYSRAW has an amyloid nucleation score of -0.308 ± 0.6.
In the case of IKQRDN, the amyloid nucleation score is reported as “inactive”.
With IKRCK the amyloid nucleation score was 1.39 ± 0.076.
For IKTRAKLLYFQLVVLTNFLP, the amyloid nucleation score was “inactive”.
For IKVEATRSAVASLRLHI, the amyloid nucleation score was “inactive”.
With IKWFLSNGIYYGILNFIDTR the amyloid nucleation score was “inactive”.
Substance IKYFAIVSVCGFVA has an amyloid nucleation score of 1.23 ± 0.13.
In the case of ILAHPCSYRFGSWGRLINRN, the amyloid nucleation score is reported as “inactive”.
With ILCGESTR the amyloid nucleation score was “inactive”.
With ILDAMDTLLRYSGCDRLSWK the amyloid nucleation score was “inactive”.
With ILDMSERFQILNNFR the amyloid nucleation score was “inactive”.
For ILDWG, the amyloid nucleation score was 0.886 ± 0.15.
For ILFEFTTPNLSYIFCFFTIH, the amyloid nucleation score was “inactive”.
For ILGKRC, the amyloid nucleation score was “inactive”.
With ILHFRETLTRINNLEA the amyloid nucleation score was “inactive”.
With ILHKGNS the amyloid nucleation score was “inactive”.
Substance ILKVLFKF has an amyloid nucleation score of 1.13 ± 0.1.
In the case of ILLKNFGYEHAAKLNTMKMI, the amyloid nucleation score is reported as “inactive”.
With ILLRPPGWSRQWSVRWGNYP the amyloid nucleation score was “inactive”.
ILLSSHSSECNNALIRRF showed an amyloid nucleation score of 1.46 ± 0.074.
With ILNRLCRDLYVAFTSSAACR the amyloid nucleation score was “inactive”.
For ILPDLRTFPWSPVVIVHSR, the amyloid nucleation score was “inactive”.
In the case of ILPLMEFGEPKFESSVYSS, the amyloid nucleation score is reported as “inactive”.
For ILRFFIT, the amyloid nucleation score was “inactive”.
For ILSILMCLQETNTDYNSMNR, the amyloid nucleation score was “inactive”.
In the case of ILSTIVMFLVPSYHLFWLWA, the amyloid nucleation score is reported as “inactive”.
With ILSVSLVVHRKRTTWISNYH the amyloid nucleation score was “inactive”.
For ILTGNGYDSTRKAYCQFWCF, the amyloid nucleation score was “inactive”.
With ILTHTEVCIPSVRTLSGCKG the amyloid nucleation score was “inactive”.
For ILVIYCRVMKCFKCTRMRLC, the amyloid nucleation score was “inactive”.
In the case of IMANFVRMYLEYMMRAAVSL, the amyloid nucleation score is reported as “inactive”.
With IMCANSEVVKCYCNRTKLEL the amyloid nucleation score was 1.08 ± 0.14.
For IMLLLYSESYLTPRTVVNSR, the amyloid nucleation score was “inactive”.
With IMPYC the amyloid nucleation score was “inactive”.
IMSFVS showed an amyloid nucleation score of 0.031 ± 0.43.
